Data as given in patent publication US20140017242A1, “ANTI-BRADYKININ B2 RECEPTOR (BKB2R) MONOCLONAL ANTIBODY” (Diamedica, Inc., priority 2010, published 2014).
Where no end group is shown, it is not given here.

Experiments:
BKB2 receptor = biological target: T1, BKB2 receptor (Homo sapiens, UniProt P30411); conditions: BKB2 receptor agonist; cited from earlier work
T1 sequence (P30411 1-391): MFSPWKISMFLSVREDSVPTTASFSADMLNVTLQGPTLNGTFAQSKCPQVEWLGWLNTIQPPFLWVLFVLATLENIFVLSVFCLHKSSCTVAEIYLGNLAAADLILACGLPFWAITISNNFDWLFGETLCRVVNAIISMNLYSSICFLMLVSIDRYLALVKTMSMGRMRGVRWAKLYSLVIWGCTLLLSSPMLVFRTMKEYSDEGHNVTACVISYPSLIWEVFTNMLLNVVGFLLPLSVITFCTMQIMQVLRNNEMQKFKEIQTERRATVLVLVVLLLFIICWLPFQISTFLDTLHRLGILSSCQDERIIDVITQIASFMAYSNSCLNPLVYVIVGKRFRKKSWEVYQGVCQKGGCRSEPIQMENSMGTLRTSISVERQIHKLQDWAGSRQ

[1] = cited from earlier work
[2] = biological target: T2, human BKB2R-derived epitope peptide (SEQ ID NO:73), PEG-biotin (human, also: PEG-biotin, site not given here); experiment: BLI (Octet), peptide-PEG-biotin on streptavidin sensor, antibody 833 nM
T2 construct: also called immunogenic human BKB2R peptide fragment
T2 peptide: KEYSDEGHNVTAC

[3] = biological target: T2, human BKB2R-derived epitope peptide …; experiment: BLI (Octet), peptide-PEG-biotin on streptavidin sensor, antibody 1000 nM
[4] = biological target: T2, human BKB2R-derived epitope peptide …; experiment: BLI (Octet), peptide-PEG-biotin on streptavidin sensor, antibody 1667 nM
[5] = biological target: T2, human BKB2R-derived epitope peptide …; experiment: BLI (Octet), peptide-PEG-biotin on streptavidin sensor, antibody 3333 nM
[6] = biological target: T2, human BKB2R-derived epitope peptide …; experiment: BLI (Octet), peptide-PEG-biotin on streptavidin sensor, antibody 3333 nM; antibody 3333 nM row; the same constants are printed for all four ab 404 concentrations

Molecule | Kd (BKB2 receptor) [nM] | short lived, in vivo [1] [s] | Kd [2] [nM] | koff [2] [s⁻¹] | kon [2] [M⁻¹ s⁻¹] | Kd [3] [nM] | koff [3] [s⁻¹] | kon [3] [M⁻¹ s⁻¹] | Kd [4] [nM] | koff [4] [s⁻¹] | kon [4] [M⁻¹ s⁻¹] | koff [5] [s⁻¹] | kon [5] [M⁻¹ s⁻¹] | Kd [6] [nM]
kallidin | ~0.89 | ~30 |  |  |  |  |  |  |  |  |  |  |  | 
murine monoclonal anti-BKB2R antibody 5F12G1 (antibody, IgG2b, V domains shown, also called F512G1) VH: EVKLEESGGGLVQPGGSMKLSCVVSGFTFSDYWMSWVRHSPEMGLEWVAEIRLKSDNYATHYAESVKGRFTISRDDSKSRLYLQINSLRGEDTGIYYCTRDYYAMEYWGQGTSVTVSS VL: DVVMTQTPLSLPVSLGDQASISCRSSQTIVHSNGKTYLEWYLQKPGQSPKLLIYKVSNRFSGVPDRFSGSGSGTEFTLKISRVETEDLGVYYCFQASHVPYTFGGGTKLEIK |  |  | 462 | 0.00109 | 2350 | 462 | 0.00109 | 2350 | 462 | 0.00109 | 2350 | 0.00109 | 2350 | 462
